We go through four substances from patent US5456909A, “Glycoform fractions of recombinant soluble complement receptor 1 (sCR1) having extended half-lives in vivo” (T Cell Sciences, Inc., priority 1992, dated 1995).

Values joined by “and” are separate entries in the source; they are usually repeats but may differ in a detail not shown here. Equal values may be shown once.

Data set [1] can be described thus: Pharmacokinetic studies 1, 4, 5, 7, 9: iv clearance of 125I-labelled TP10HD preparations in rats. Type of data set: in vivo, Sprague-Dawley rats. The protocol:
In Studies 1, 2, 4, 5, 7 and 9, Iodination was carried out by the chloramine-T procedure. Sodium phosphate buffer, 0.5M, pH 7.6, 50 μl, was added to 1 mCi of Na-^125 I (New England Nuclear, Boston, Mass.) as supplied. The sample of TP10HD, typically 100 μg in 100 μl (Study 5=69 μg; Study 7=34 μg; Study 9=91 μg), was added followed by 50 μl of a 15 mg/ml solution of freshly prepared chloramine-T. The reaction mixture was vigorously shaken for 60 seconds. Sodium metabisulfite (50 μl, 15 mg/ml) and sodium iodide (100 μl, 10 mg/ml) were successively pipetted into the reaction vial. The reaction mixture was passed onto a PD10 column (Pharmacia Fine Chemicals, Piscataway, N.J.), pre-equilibrated with phosphate buffered saline, pH 7.2-7.4, containing 0.1% bovine serum albumin (Sigma Chemical Company, St. Louis, Mo.). Ten 0.5 ml fractions were collected and 2 μl aliquots were counted directly and after combining with 100 μl of a 0.1% bovine serum albumin solution and 1 ml of 20% trichloroacetic acid. After incubation at 0° C. for 1 hour, the acid-precipitable protein associated radioactivity was collected by centrifugation for 10 minutes at 1000×g and quantitated by scintillation counting. Fractions containing >90% of the total radioactivity in the acid precipitate were pooled for further use.
Study 1: Radioiodinated TP10HD-CX was mixed with purified unlabeled TP10HD-CX to yield a dosing solution suitable for administering a 1 mg/kg total TP10HD dose containing 16-25×10^6 cpm of radiolabeled TP10HD-CX.
Study 4: Radioiodinated TP10HD-CC was mixed with purified unlabeled TP10HD-CC to yield a dosing solution suitable for administering a 1 mg/kg or a 3 mg/kg total TP10HD dose containing ~20×10^6 cpm.
Study 5: Radioiodinated TP10HD-CCW was mixed with purified unlabeled TP10HD-CCW to yield a dosing solution suitable for administering a 1 mg/kg total TP10HD dose containing ~20×10^6 cpm.
Study 7: Radiolabeled TP10HD-CCS was mixed with purified unlabeled TP10HD-CCS to yield a dosing solution suitable for administering a 1 mg/kg total TP10HD dose containing ~20×10^6 cpm.
Study 9: Radioiodinated TP10HD-CXD was mixed with purified unlabeled TP10HD-CXD to yield a dosing solution suitable for administering a 1 mg/kg total TP10HD dose containing ~20~10^6 cpm.
In Studies 1, 4, 5, 7 and 9, test material was injected intravenously (iv) into four Sprague-Dawley rats (2 male, 2 female). Blood samples were obtained from the retroorbital plexus at 1, 3, 5, 10, 20, 30, 45, and 60 minutes post injection, and the radioactivity determined. Additional post infusion blood samples were taken at 2, 3, and 4 hours postinjection (STUDY 4) and at 120 minutes (STUDY 5). The plasma fraction of the remaining blood sample was retained for further analysis.
Plasma samples were analyzed for residual test material by measuring:
(1) total residual radioactivity;
(2) percentage of radiolabeled material precipitated with TCA;
(3) residual acid precipitable radioactivity in the presence of SDS; and
(4) material immunologically identifiable in an enzyme immunoassay as TP10HD.
Radioisotope data was quantitated as total cpm/ml blood or plasma and as the percentage of a theoretical time zero value. Pharmacokinetic half-life was calculated from the radiometric data.
In Study 9, removal of N-linked oligosaccharide chains was performed by n-glycanase digestion, performed according to manufacturer's instructions (Genzyme Corporation, Boston, Mass.). Typically, 58 μg TP10HD-CX was incubated with 10.5 units of n-glycanase for 18 hours, 37° C., in 0.2M sodium phosphate, pH 8.6 buffer.
Precipitation with trichloroacetic acid was performed as follows: Plasma (20 μl) was precipitated by sequential addition of 450μl of 0.13M Tris HCl, 4% SDS, 10% glycerol, pH 6.8 buffer, followed by 30 μl of fetal bovine serum and 500μl of 20% trichloroacetic acid. […]

Data set [2] is described as follows: Pharmacokinetic study 3: iv TP10HD-CC in pigs, residual functional activity by hemolysis inhibition with pig complement. As to conditions: 1 mg/kg. Type of data set: in vivo. The protocol:
Study 3: TP10HD-CC was administered as supplied to a final dose of 1 mg/kg.
In Study 3, test material was injected iv through a jugular vein cannula into piglets ranging in weight from 4.5 to 6.1 kg. Blood samples were taken via a previously implanted jugular vein cannula into syringes containing lithium heparin at a final concentration of 15 units/ml. A preinfusion sample, 10 ml, was taken at zero time and postinfusion samples, 1.0 ml, were taken at 5, 10, 15, 30, 45, 60, 120, 180, 240, 300, 360 minutes and 24 hours. Anticoagulated blood samples were centrifuged at ~3000 rpm, 4° C., 5 minutes and the platelet-poor plasma was aliquotted and stored at or below -70° C.
Plasma samples were analyzed for residual test material by an in vitro functional assay, as above, using pig rather than human complement. Pharmacokinetic half-life was calculated from the titer of the residual functional activity.
Prior to infusion with TP10HD-CC, plasma was collected from each pig to be used as a sample diluent and complement source for the hemolysis assay. Test samples were diluted a minimum of 1:50 with 0.1M Hepes, 0.15M NaCl, pH 7.4 buffer. For greater dilution, test samples were diluted with preinfusion plasma already diluted 1:50 in the same buffer, thereby maintaining the final plasma concentration at 1:50. At this dilution, the degree of hemolysis was equivalent to hemolysis with human complement, as described above. Other manipulations were as described above. Standard curves with known quantities of TP10HD can be used to calibrate the assay so that results can be expressed as μg/ml TP10HD remaining in the plasma versus time.
The pharmacokinetic parameters for clearance rate, compartment volume, rate constants and half-life were obtained by fitting the data for each pig to two and three compartment models. […] These phases represent 69% and 31% respectively of the given dose such that approximately one-third of the dose was cleared slowly.

Data set [3] relates to complement-mediated lysis of antibody coated SRBC. Kind of data set: Inhibition of complement-mediated hemolysis of antibody-sensitized SRBC in vitro. Type of data set: cell-based, human. On the procedure:
(§1) SRBC presensitized with rabbit anti-SRBC antibody (Diamedix, Miami, Fla.) were mixed in a V-bottom microtiter wells (Costar, Cambridge, Mass.) with an appropriate dilution of the test plasma and an aliquot of diluted human serum as a complement source. After incubation, 37° C., 1 hour, the unlysed red cells were pelleted by centrifugation, the supernatant transferred to corresponding flat bottom microwells (Costar, Cambridge, Mass.), and absorbance at 415 nm measured. Inhibition of complement-mediated lysis of the antibody coated SRBC was measured as a reduction in the absorbance in the presence of test sample.
A range of dilutions of TP10HD or TP10HD glycoform spanning 7.8 to 1000 ng/ml was examined for each sample.

Data set [4] is described as follows: Isoelectric point by chromatofocusing (Mono P, pH 7.1 to 4.0). Type of data set: physicochemical. As to conditions: for pI of minor isoforms: smaller quantities / minor component. On the procedure:
Chromatofocusing is a method of separating isoforms of proteins according to their isoelectric point, pI, using an ion exchange column and a pH gradient created with amphoteric buffers of different pH. In this study, analysis of the TP10HD preparations was performed using a pH gradient of 7.1 to 4.0. The chromatographic resin was Mono P, Hr5/5 (Pharmacia Fine Chemicals, Piscataway, N.J.); the starting buffer was 0.025M Bis/Tris titrated to pH 7.1 with saturated iminodiacetic acid; the eluant was polybuffer 7-4 (Pharmacia Fine Chemicals, Piscataway, N.J.) diluted 1:10 (v/v) with water and adjusted to pH 4.0 with HCl; cleaning buffer was 2M NaCl in water. The experimental conditions were chosen to yield a linear pH gradient of 7.1 to 4.0 units.

The nature of data set [5]: Pharmacokinetic study 2: iv TP10HD-CX in rabbits, residual functional activity by hemolysis inhibition. Type of data set: in vivo, Dutch rabbits. As to conditions: for Peak (t = O) conc / Serum half-life / Total Clearance / Volume of Distribution: iv, 1 mg/kg. The protocol:
Study 2: Radioiodinated TP10HD-CX, ~5% w/w, was mixed with purified TP10HD-CX to yield a dosing solution containing 1 mg/ml TP10HD-CX in 0.1M Hepes, 0.15M NaCl, pH 7.4 buffer.
In Study 2, test material was injected iv into two groups of five male Dutch rabbits (approximately 1 kg) at a dose of 1 mg/kg. Blood samples, 2 ml, were taken from an ear artery immediately pre-dosing and at 5, 10, 20, 45, 60, 120, and 180 minutes, and mixed with heparin (final concentration 25 μg/ml). Radioactivity was determined in an aliquot by scintillation counting, and the plasma, obtained by centrifugation at 2000×g for 5 minutes, was stored at -40° C.
Plasma samples were analyzed for residual test material by an in vitro functional assay, inhibition of hemolysis of antibody coated sheep red blood cells (SRBC) by human complement. Pharmacokinetic half-life was calculated from the titer of the residual functional activity.
Rabbit plasma samples were heated at 56° C. for 1 hour in the presence of methylamine (12.5 mM) in order to amidate thioester groups and to inactivate endogenous complement components C3 and C4. […] Test samples were then diluted 1:50 with 0.1 Hepes, 0.15M NaCl, pH 7.4 buffer and assayed.
as §1, with “sample. Standard curves with known quantities of TP10HD can be used to calibrate the assay so that results can be expressed as mg/ml TP10HD remaining in the plasma versus time.” for “sample.”

The conditions of data set [6]: in vivo.
Protocol: Plasma pharmacokinetic half-lives and/or clearance rates of different glycoform preparations were determined.
The test system of data set [7] is reversed passive Arthus reaction. As to conditions: in vivo; cited from earlier work.
Data set [8] deals with post-ischemic myocardial inflammation and necrosis. As to conditions: in vivo; cited from earlier work.
The conditions of data set [9]: in vivo; cited from earlier work.
Where [10] appears, read: SRBC, human serum as complement source.

In data set [1] (1 mg/kg), “TP10HD-CC: TP10HD produced by cells cultured in a fluidized bed perfusion bioreactor and purified by combination chromatography” gave a α phase half-life of 9.2 min and a β phase half-life of 181.1 min. For the same substance, in [1] (3 mg/kg), the α phase half-life is recorded as 9.8 min and the β phase half-life is listed as 267.1 min. In data set [2], the “% of given dose represented by α-phase” value turned out to be 69%, the “% of given dose represented by β-phase” value turned out to be 31%, the “Peak (t = O) concentration” value is 29.3 µg/mL and the “Total Clearance” value was determined as 0.24 mL/min/kg. Also, in data set [2], the “Volume of Distribution, α-phase” value is 0.036 L/kg and the “Volume of Distribution, β-phase” value turned out to be 0.073 L/kg. In addition, the “plasma level 24 hours after dosing” value in [2] (24 hours) is given as “not distinguishable from control levels”. In data set [2] (mean of 8 animals), the “Serum half-life, α-phase” value is 8.3 min; the “Serum half-life, β-phase” value is 360 min and 363 min. Moreover, the “mean half-life, β-phase” value in data set [2] (two-compartment model) stood at 360 min. In addition, in data set [3] (setting [10]), the “IH50 (concentration giving 50% inhibition of hemolysis)” value was “about 50±3 ng/ml”. The “potency relative to the strongly cationic glycoform (fold lower)” value in [3] (from IH50 of TP10HD-CX and TP10HD-CC) is on record as “approximately 2 fold”. Further, the “antihemolytic potency comparison, in words” value in data set [3] (in vitro) is “no basis for concluding that TP10HD-CC, TP10HD-CCW and TP10HD-CCS differ in their potency”. Further, in [4] (chromatofocusing), the “pI of dominant isoforms” value is 5.1 and 4.8; the “pI of minor isoforms” value worked out at 5.7. Also, the “proportion of preparation with pI <4.9” value in [4] (peak integration) is “approximately 40%”.

As to “TP10HD-CX: TP10HD produced by cells cultured in a hollow fiber bioreactor and purified by HPLC cation exchange chromatography”, in data set [1] (1 mg/kg), the α phase half-life stood at 4.3 min and the β phase half-life was 167 min. In data set [5] (Study 2, iv, 1 mg/kg (Table 3 summary)), this substance displayed a α phase half-life of 9 to 11 min. Further, in data set [5] (Group 1), the “Peak (t = O) conc” value was 16.5 ± 2.4 µg/mL, the Serum half-life was 9.1 ± 1.4 min, the “Total Clearance” value came out at 5.8 ± 1.2 mL/min/kg and the “Volume of Distribution” value stood at 0.067 ± 0.009 L/kg. Besides, in [5] (Group 2), the “Peak (t = O) conc” value came to 23.7 ± 1.7 µg/mL, the Serum half-life came out at 11.1 ± 1.2 min, the “Total Clearance” value stood at 2.9 ± 0.1 mL/min/kg and the “Volume of Distribution” value turned out to be 0.0446 ± 0.0037 L/kg. For the same substance, the “IH50 (concentration giving 50% inhibition of hemolysis)” value in [3] (setting [10]) was found to be 20 ± 7 ng/mL. For the same substance, in data set [4] (chromatofocusing), the “average pI, in words” value was “higher average pI than TP10HD-CC” and the “pI of minor isoforms” value is listed as at most 5.0.

In [1] (1 mg/kg), “TP10HD-CXD: TP10HD-CX enzymatically deglycosylated with n-glycanase” had a α phase half-life of under 1 min and a β phase half-life of 6.1 min. Moreover, in data set [3] (comparison before and after deglycosylation), the “IH50 (concentration giving 50% inhibition of hemolysis)” value was determined as 40 ng/mL. Further, in data set [6], the “plasma half-life / clearance, in words” value is reported as “cleared rapidly”.

In the case of “sCR1/pBSCR1c: soluble CR1 construct containing LHR-A, LHR-B, LHR-C, LHR-D, SCR29, SCR30 regions up to and including the first alanine residue of the transmembrane region”, the “activity in reversed passive Arthus reaction” value in data set [7] is listed as “demonstrated in vivo activity”. Moreover, the “post-ischemic myocardial inflammation and necrosis” value in data set [8] is “suppressed post-ischemic myocardial inflammation and necrosis”. Also, the “survival rates following transplantation” value in data set [9] is on record as “extended survival rates following transplantation”.
